Source: PMC3989777 (Cell Reports, 2014)
Where a SMILES comes first, the peptide text is derived from it. Where no end group is shown, it is not given here. [ ]: non-standard residue; d: D form. pS = N[C@@H](COP(=O)(O)O)C(=O)O

What was measured:
PIH1D1 (1-180) = PIH1D1 (1-180) (Homo sapiens, UniProt Q9NWS0); experiment: ITC of phosphopeptide binding to PIH1D1 1-180
PIH1D1 1–180 = PIH1D1 1–180 (human, UniProt Q9NWS0 1-180); experiment: ITC
PIH1D1 1–180, sequence (Q9NWS0 1-180): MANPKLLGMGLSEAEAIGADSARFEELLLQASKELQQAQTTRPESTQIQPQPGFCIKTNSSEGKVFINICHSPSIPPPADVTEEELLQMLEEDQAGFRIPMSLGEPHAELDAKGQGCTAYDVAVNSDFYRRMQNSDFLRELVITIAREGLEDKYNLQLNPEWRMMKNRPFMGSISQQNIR

PIH1D1 (1-180), sequence (Q9NWS0 1-180): as above

Molecule	higher affinity relative to the TEL2 peptide phosphorylated on Ser491 (PIH1D1 (1-180))	Kd (PIH1D1 1–180) [µM]
CC(C)C[C@H](NC(=O)[C@H](CC(=O)O)NC(=O)[C@H](COP(=O)(O)O)NC(=O)[C@H](CC(=O)O)NC(=O)[C@H](CO)NC(=O)CNC(=O)[C@H](C)NC(=O)[C@@H](N)Cc1ccc(O)cc1)C(=O)N[C@@H](CC(=O)O)C(=O)N[C@@H](COP(=O)(O)O)C(=O)N[C@@H](CC(=O)O)C(=O)N[C@@H](CC(=O)O)C(=O)N[C@@H](CCC(=O)O)C(=O)N[C@@H](Cc1ccccc1)C(=O)N[C@H](C(=O)N1CCC[C@H]1C(=O)N[C@@H](Cc1ccc(O)cc1)C(N)=O)C(C)C (H-YAGSD[pS]DLD[pS]DDEFVPY-NH2)	2- to 3 fold	
YAGSDSDLD[pS]DDEFVPY (also: phosphoserine at Ser491, place not mappable) [TEL2 peptide phosphorylated on Ser491]		3.5
RPNESD[pS]DDLDDY [ECD peptide RPNESDpS505DDLDDY]		16
